Literature values, collected in patent US6528620B1, “Sid-polyamide fusions: a potent method of regulating gene expression” (University of Utah Research Foundation, priority 1999, dated 2003).

Assays:
Conditions in all cases: Ayer et al., Cell 80:767-776 (1995); cited from earlier work
PAH3 domain of mSin3A = target: T1, PAH3 domain of mSin3A (Mus musculus, UniProt Q60520)
T1 sequence (Q60520 457-526 limits assumed): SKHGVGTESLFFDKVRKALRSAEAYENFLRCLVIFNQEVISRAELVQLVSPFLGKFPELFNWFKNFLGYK

PAH1 domain of mSin3A = target: T2, PAH1 domain of mSin3A (Mus musculus, UniProt Q60520)
T2 sequence (Q60520 119-189 limits assumed): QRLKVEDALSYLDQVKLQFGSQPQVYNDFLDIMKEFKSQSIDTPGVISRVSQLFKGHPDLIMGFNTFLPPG

PAH4 domain of mSin3A = tested on: PAH4 domain of mSin3A
PAH4 domain of mSin3A, sequence (Q60520 889-968 limits assumed): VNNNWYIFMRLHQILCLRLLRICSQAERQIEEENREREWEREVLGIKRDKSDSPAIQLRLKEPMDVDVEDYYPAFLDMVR

B1: Mad1: bHLHZip transcriptional repressor protein of the Mad family (protein)
chain: MAAAVRMNIQMLLEAADYLERREREAEHGYASMLPYNNKDRDALKRRNKSKKNNSSSRSTHNEMEKNRRAHLRLCLEKLKGLVPLGPESSRHTTLSLLTKAKLHIKKLEDCDRKAVHQIDQLQREQRHLKRQLEKLGIERIRMDSIGSTVSSERSDSDREEIDVDVESTDYLTGDLDWSSSSVSDSDERGSMQSLGSDEGYSSTSIKRIKLQDSHKACLGL
modifications: left off: small tags and cut ends
notes: bHLHZip transcriptional repressor protein of the Mad family
no interaction is detected: interaction with PAH3 (PAH3 domain of mSin3A) | interaction with PAH1 (PAH1 domain of mSin3A) | interaction with PAH4 (PAH4 domain of mSin3A)
